According to publication PMC3274520:

How the values were obtained:
[1] = target: full-length MNV-1 NS1-2, bacterial two-hybrid fusions (pBT-NS1-2full and pTRG-NS1-2full) (Murine norovirus (MNV-1)); assay: two-hybrid; BacterioMatch II bacterial two-hybrid; NS1-2 fused to λcI (pBT) and to the RNA polymerase α-subunit (pTRG); selective medium with 3 mM 3-AT
[2] = target: truncated MNV-1 NS1-2 fragment (minus the transmembrane domain), recombinant from E. coli (Murine norovirus (MNV-1)); assay: SEC + other: sucrose gradient sedimentation; Stokes radius from the calibrated Superose12 column and sedimentation coefficient from 5-20% sucrose gradients (16 h, 130,000×g, 4°C) joined in the simplified Svedberg equation; monomer and dimer fractions of the size exclusion column
[3] = target: truncated MNV-1 NS1-2, bacterial two-hybrid fusions (pBT-NS1-2trunc and pTRG-NS1-2trunc) (Murine norovirus (MNV-1)); assay: two-hybrid; BacterioMatch II bacterial two-hybrid; NS1-2 fused to λcI (pBT) and to the RNA polymerase α-subunit (pTRG); selective medium with 3 mM 3-AT

With “full-length MNV-1 NS1-2, bacterial two-hybrid fusions (pBT-NS1-2full and pTRG-NS1-2full) (natural protein)” as the substance, how does the percent positive (transcriptional activation) [1] read?
Its percent positive (transcriptional activation) is 26%.

With “truncated MNV-1 NS1-2 fragment (minus the transmembrane domain), recombinant from E. coli (domain or fragment)” as the substance, how does the stoichiometry N [2] read?
Its stoichiometry N is 2.

Which percent positive (transcriptional activation) [3] does the source give for “truncated MNV-1 NS1-2, bacterial two-hybrid fusions (pBT-NS1-2trunc and pTRG-NS1-2trunc) (domain or fragment)” here?
The percent positive (transcriptional activation) was 38%.
